For data set [1], the target named is T1, GLD-1 KH-QUA2 (Caenorhabditis elegans, UniProt Q17339 195-336).
T1 sequence: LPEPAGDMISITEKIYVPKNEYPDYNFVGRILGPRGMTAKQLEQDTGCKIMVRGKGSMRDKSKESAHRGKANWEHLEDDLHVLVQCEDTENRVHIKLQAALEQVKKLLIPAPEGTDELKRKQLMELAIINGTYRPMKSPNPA
The data set is described as follows: NMR HSQC titration.

For data set [2], the target named is T1, GLD-1 KH-QUA2. The data set is described as follows: ITC. A general note: ITC needs no label: the signal is the heat of the interaction.
Data set [3] has as its target T2, GLD-1 KH-QUA2 P228A (Caenorhabditis elegans, UniProt Q17339 195-336, P228A).
T2 sequence: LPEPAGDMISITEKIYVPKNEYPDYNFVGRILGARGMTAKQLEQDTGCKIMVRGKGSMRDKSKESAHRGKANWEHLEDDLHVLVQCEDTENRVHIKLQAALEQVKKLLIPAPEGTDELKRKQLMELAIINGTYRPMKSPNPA
The data set is described as follows: ITC.

Data set [4] addresses T3, GLD-1 KH-QUA2 P228S (Caenorhabditis elegans, UniProt Q17339 195-336, P228S).
T3 sequence: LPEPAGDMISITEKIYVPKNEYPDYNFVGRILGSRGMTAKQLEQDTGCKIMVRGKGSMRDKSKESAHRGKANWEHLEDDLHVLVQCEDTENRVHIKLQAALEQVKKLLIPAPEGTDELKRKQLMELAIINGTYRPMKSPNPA
Nature of the data set: NMR HSQC titration.

On to AUUUAAUUU (ssRNA) [tra-2 TGE weak site], for which, in data set [1], the binding result is “binds”.

The term Kd denotes the constant that tells how readily two partners part at equilibrium. A lower Kd goes with a tighter complex. The molecule CUACUCAUAU (ssRNA) [tra-2 TGE strong site] yielded a dissociation constant Kd in data set [2] of 61 ± 3 nM. The binding signal in data set [3] was 19 fold decrease in affinity vs wild type. Besides, in data set [4], the binding result is recorded as “binds”.

The record behind these values is article PMC4081071.
